Reference: the supplement of paper PMC9112550, “Optimization of the antimicrobial peptide Bac7 by deep mutational scanning” (BMC Biology, 2022)

tested on: Escherichia coli TOP10; experiment: shrunken log2 fold change of peptide-encoding DNA abundance (4.5 h post-induction vs induction); higher = less antimicrobial activity (less host growth inhibition); conditions: time post-induction: 4.5 h; library: site-saturation at positions 5, 18, 19, 20
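Note: peptides expressed intracellularly from a pBAD plasmid library in pooled LB shake-flask culture, induced with 0.3% L-arabinose, DNA abundance read by NGS, three biological replicates, DESeq2 with apeglm shrinkage.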

Point of comparison: RRIRWRPPRLPRPRPRPSPFPRP, “shrunken log2 fold change” value -0.245. Against it:
- RRIRERPPRLPRPRPRPYEPPRP — higher, 0.029
- RRIRIRPPRLPRPRPRPKQTPRP — higher, -0.0291
- RRIRYRPPRLPRPRPRPHQRPRP — higher, -0.0288
- RRIRSRPPRLPRPRPRPFQEPRP — within 0.2 log units, -0.0528
- RRIRFRPPRLPRPRPRPRAIPRP — higher, 0.0543
- RRIRIRPPRLPRPRPRPYLCPRP — within 0.2 log units, -0.0937
- RRIRPRPPRLPRPRPRPVTYPRP — within 0.2 log units, -0.0866
- RRIRDRPPRLPRPRPRPAQRPRP — higher, 0.152
- RRIRFRPPRLPRPRPRPTRAPRP — higher, 0.825
- RRIRSRPPRLPRPRPRPEGGPRP — higher, 0.325
- RRIRCRPPRLPRPRPRPESAPRP — higher, 0.703
- RRIRTRPPRLPRPRPRPPHIPRP — lower, -0.471
- RRIRPRPPRLPRPRPRPEALPRP — higher, 0.439
- RRIRPRPPRLPRPRPRPSLRPRP — higher, 0.0129
- RRIRSRPPRLPRPRPRPWNGPRP — higher, -0.0136
- RRIRFRPPRLPRPRPRPKPKPRP — higher, 0.848
- RRIRCRPPRLPRPRPRPECWPRP — higher, 0.669
- RRIRERPPRLPRPRPRPPELPRP — higher, 0.102
- RRIRTRPPRLPRPRPRPMIDPRP — within 0.2 log units, -0.246
- RRIRFRPPRLPRPRPRPRNAPRP — higher, 0.347
- RRIRIRPPRLPRPRPRPFEKPRP — within 0.2 log units, -0.103
- RRIRIRPPRLPRPRPRPGKRPRP — higher, 0.0192
- RRIRPRPPRLPRPRPRPQSQPRP — higher, -0.00349
- RRIRVRPPRLPRPRPRPARGPRP — higher, 0.681
- RRIRFRPPRLPRPRPRPKEGPRP — higher, 0.0546
- RRIRLRPPRLPRPRPRPHEGPRP — higher, -0.00992
- RRIRPRPPRLPRPRPRPAYFPRP — within 0.2 log units, -0.16
- RRIRMRPPRLPRPRPRPVFLPRP — higher, 0.0386
- RRIRARPPRLPRPRPRPCKEPRP — higher, 0.000506
- RRIRYRPPRLPRPRPRPFVQPRP — higher, -0.0236
- RRIRPRPPRLPRPRPRPLLHPRP — higher, 0.0277
- RRIRPRPPRLPRPRPRPFWEPRP — higher, -0.0196
- RRIRRRPPRLPRPRPRPLCDPRP — higher, 0.422
- RRIRIRPPRLPRPRPRPSNQPRP — lower, -1.08
- RRIRVRPPRLPRPRPRPALCPRP — higher, 0.555
- RRIRNRPPRLPRPRPRPTTPPRP — higher, 0.152
- RRIRCRPPRLPRPRPRPDAIPRP — higher, -0.0147
- RRIRYRPPRLPRPRPRPRLRPRP — higher, 0.0744
- RRIRIRPPRLPRPRPRPIPWPRP — lower, -0.533
- RRIRRRPPRLPRPRPRPWFDPRP — within 0.2 log units, -0.064
- RRIRWRPPRLPRPRPRPDCWPRP — higher, 0.967
- RRIRVRPPRLPRPRPRPYAAPRP — within 0.2 log units, -0.3
- RRIRERPPRLPRPRPRPGMRPRP — higher, 0.471
- RRIRTRPPRLPRPRPRPEMHPRP — within 0.2 log units, -0.149
- RRIRWRPPRLPRPRPRPFLCPRP — within 0.2 log units, -0.139
- RRIRMRPPRLPRPRPRPVNDPRP — higher, -0.00185
- RRIRPRPPRLPRPRPRPYPAPRP — lower, -0.582
- RRIRNRPPRLPRPRPRPQVQPRP — lower, -0.524
- RRIRKRPPRLPRPRPRPNNSPRP — within 0.2 log units, -0.371
- RRIRVRPPRLPRPRPRPGELPRP — within 0.2 log units, -0.0483
- RRIRRRPPRLPRPRPRPVADPRP — higher, 0.228
- RRIRQRPPRLPRPRPRPYVDPRP — within 0.2 log units, -0.431
- RRIRKRPPRLPRPRPRPDNAPRP — higher, 0.05
- RRIRPRPPRLPRPRPRPYTLPRP — lower, -0.54
- RRIRERPPRLPRPRPRPNMVPRP — lower, -0.61
- RRIRCRPPRLPRPRPRPEDCPRP — higher, 0.173
- RRIRIRPPRLPRPRPRPPSQPRP — higher, 0.258
- RRIRIRPPRLPRPRPRPDYSPRP — lower, -1.21
- RRIRTRPPRLPRPRPRPGWQPRP — higher, 0.174
